Measured values published in patent US9364550B2, “Bioactive carbon nanotube composite functionalized with B-sheet polypeptide block copolymer, and preparation method thereof” (INDUSTRY-ACADEMIC COOPERATION FOUNDATION, YONSEI UNIVERSITY, priority 2011, dated 2016).
Ends that are not written are not given here. Ebes = not defined here

Columns and labels:
Assay type in all cases: physicochemical
[1] = Circular dichroism of cyclic peptide with and without SWCNTs (α-helix stabilization); settings: 50 μM peptide without SWCNTs
Experimental: (§1) CD spectra were measured using a Chirascan™ circular dichroism spectrometer equipped with a Peltier temperature controller (Applied Photophysics., Ltd.). The spectra were recorded from 260 nm to 200 nm using a 2 mm path-length cuvette. Scans were repeated five times and averaged. The molar ellipticity was calculated per amino acid residue. Before measurement, 50 μM solutions of peptides with and without SWCNTs were incubated for 24 h in 150 mM KF, and another 50 μM peptide solution without SWCNTs were incubated for 24 h in distilled water.
In order to verify the function of SWCNTs as protein mimics supporting the α-helical structures, CD spectra were measured on a 50 μM solution of peptide 2 of Synthesis Example 2 in pure water and a solution of peptide 2 in a 150 mM aqueous salt solution (spectra b (dotted line) and c (alternate long and two short dashes line) of FIG. 10, respectively). Peptide 2 at a concentration of 50 μM was added to a 150 mM aqueous salt solution containing 20 μg of SWCNTs, followed by sonication to form peptide/SWCNT hybrids, which were used for CD spectrum measurement (spectrum a (solid line) of FIG. 10).

[2] = Solubilization of SWCNTs by linear β-sheet block copolypeptide with sonication; settings: 5 μg SWCNTs, 0.3 mL peptide solution, pure water, sonication 15 min at room temperature
Experimental: First, it was confirmed whether this potential β-sheet forming peptide can bind to and then solubilize SWCNTs in pure water. The arc-produced SWCNTs were suspended in tetrahydrofuran (THF) and equal amounts of the SWCNTs (5 μg) were added into microcentrifuge tubes. After THF evaporation, the block copolypeptide solution (0.3 mL) was added and the mixture was subjected to sonication at room temperature for 15 min.
Next, the influence of ionic strength on the peptide/SWCNT hybrid formation was investigated. The β-sheet contents of the block copolypeptide solution increased with increasing NaCl concentration, and the increase reached a plateau at a salt concentration of around 50-60 mM (see FIG. 5).
In contrast, the granules became smaller when salt was added (50 mM) and the solution was subjected to a vortex (the right image in a) of FIG. 3). Upon soniciation of both mixtures, a significant difference was evident.
An investigation was made as to whether preassembled β-sheet nanoribbons could be disintegrated and used to solubilize CNTs in the presence of SWCNTs (path 4 or path 5 in FIG. 1).

[3] = Circular dichroism of linear peptide and peptide/SWCNT hybrid; settings: CD, molar ellipticity at 215 nm, peptide without SWCNTs
Experimental: as §1, with “250” for “260”, “190” for “200”, “5” for “50”, “12” for “24”, “20” for “150”, “or 60 mM NaCl at room temperature.” for “KF, and another 50 μM peptide solution without SWCNTs were incubated for 24 h in distilled water.”

Substance	stabilization of α-helical structure ([1]; 150 mM aqueous salt solution)	stabilization of α-helical structure ([1]; pure water)	peptide concentration at which most of the SWCNTs were suspended [2]	NaCl concentration at which the increase of β-sheet content reached a plateau [3] [mM]
cyclo [-WKWEWKWEWKWEW-Ebes-GTRQARRNRRRRWRR-Ebes-C-] (chain 2 GTRQARRNRRRRWRR-{Ebes-Cys}; reading uncertain; also: cyclic: chain 1-Ebes-chain 2-Ebes-Cys, closed head-to-tail, head-to-tail to a chain's N/C-terminus, printed as cyclo [-WKWEWKWEWKWEW-Ebes-GTRQARRNRRRRWRR-Ebes-C-]) [peptide 2]	failed to stabilize the α-helical structures	failed to stabilize the α-helical structures	–	–
GRKKRRQRRRPPQGSGGFKFEFKFEFKFE [block copolypeptide]	–	–	around 12.5 μM	50 to 60
